Test results as given in US20200268901A1 (Bristol-Myers Squibb, published 2020).
Positions count from the first letter of the chain named. Where “and” joins values, the source holds several entries; their conditions need not be identical. Equal values may be shown once. Read-outs that look alike come from different tables or passages of the source.

B1: CD73.4-IgG2.3-plusTHT (antibody)
heavy: QVQLVESGGGVVQPGRSLRLSCAASGFTFSNYGMHWVRQAPGKGLEWVAVILYDGSNKYYPDSVKGRFTISRDNSKNTLYLQMNSLRAEDTAVYYCARGGSSWYPDSFDIWGQGTMVTVSSASTKGPSVFPLAPCSRSTSESTAALGCLVKDYFPEPVTVSWNSGALTSGVHTFPAVLQSSGLYSLSSVVTVPSSNFGTQTYTCNVDHKPSNTKVDKTVERKSCVETHTCPPCPAPPVAGPSVFLFPPKPKDTLMISRTPEVTCVVVDVSHEDPEVQFNWYVDGVEVHNAKTKPREEQFNSTFRVVSVLTVVHQDWLNGKEYKCKVSNKGLPAPIEKTISKTKGQPREPQVYTLPPSREEMTKNQVSLTCLVKGFYPSDIAVEWESNGQPENNYKTTPPMLDSDGSFFLYSKLTVDKSRWQQGNVFSCSVMHEALHNHYTQKSLSLSPGK
light: not shown
B2: CD73.4-IgG2.3-plusGGG (antibody)
heavy: B1 heavy with T227G, H228G, T229G
light: not shown
B3: CD73.4-IgG2-C219S (antibody)
heavy: QVQLVESGGGVVQPGRSLRLSCAASGFTFSNYGMHWVRQAPGKGLEWVAVILYDGSNKYYPDSVKGRFTISRDNSKNTLYLQMNSLRAEDTAVYYCARGGSSWYPDSFDIWGQGTMVTVSSASTKGPSVFPLAPCSRSTSESTAALGCLVKDYFPEPVTVSWNSGALTSGVHTFPAVLQSSGLYSLSSVVTVPSSNFGTQTYTCNVDHKPSNTKVDKTVERKSCVECPPCPAPPVAGPSVFLFPPKPKDTLMISRTPEVTCVVVDVSHEDPEVQFNWYVDGVEVHNAKTKPREEQFNSTFRVVSVLTVVHQDWLNGKEYKCKVSNKGLPAPIEKTISKTKGQPREPQVYTLPPSREEMTKNQVSLTCLVKGFYPSDIAVEWESNGQPENNYKTTPPMLDSDGSFFLYSKLTVDKSRWQQGNVFSCSVMHEALHNHYTQKSLSLSPG
light: not shown
notes: anti-CD73; also called CD73.4-IgG2.3; CD73.4-IgG2CS
B4: CD73.4-IgG2.3G1-KH (antibody)
heavy: QVQLVESGGGVVQPGRSLRLSCAASGFTFSNYGMHWVRQAPGKGLEWVAVILYDGSNKYYPDSVKGRFTISRDNSKNTLYLQMNSLRAEDTAVYYCARGGSSWYPDSFDIWGQGTMVTVSSASTKGPSVFPLAPCSRSTSESTAALGCLVKDYFPEPVTVSWNSGALTSGVHTFPAVLQSSGLYSLSSVVTVPSSNFGTQTYTCNVDHKPSNTKVDKTVERKSCVECPPCPAPPVAGPSVFLFPPKPKDTLMISRTPEVTCVVVDVSHEDPEVKFNWYVDGVEVHNAKTKPREEQYNSTYRVVSVLTVLHQDWLNGKEYKCKVSNKALPAPIEKTISKAKGQPREPQVYTLPPSREEMTKNQVSLTCLVKGFYPSDIAVEWESNGQPENNYKTTPPVLDSDGSFFLYSKLTVDKSRWQQGNVFSCSVMHEALHNHYTQKSLSLSPGK
light: not shown

Key:
[1] = biological target: T1, hCD73-his (full length extracellular domain of human CD73, residues 26-546, C-terminal polyhistidine tag) (human, UniProt P21589 26-546); experiment: SEC, 5.5 uM each; peak 1: complexes larger than 4:4
T1 construct: range 26-546; not shown: C-terminal polyhistidine tag
T1 sequence (looked up): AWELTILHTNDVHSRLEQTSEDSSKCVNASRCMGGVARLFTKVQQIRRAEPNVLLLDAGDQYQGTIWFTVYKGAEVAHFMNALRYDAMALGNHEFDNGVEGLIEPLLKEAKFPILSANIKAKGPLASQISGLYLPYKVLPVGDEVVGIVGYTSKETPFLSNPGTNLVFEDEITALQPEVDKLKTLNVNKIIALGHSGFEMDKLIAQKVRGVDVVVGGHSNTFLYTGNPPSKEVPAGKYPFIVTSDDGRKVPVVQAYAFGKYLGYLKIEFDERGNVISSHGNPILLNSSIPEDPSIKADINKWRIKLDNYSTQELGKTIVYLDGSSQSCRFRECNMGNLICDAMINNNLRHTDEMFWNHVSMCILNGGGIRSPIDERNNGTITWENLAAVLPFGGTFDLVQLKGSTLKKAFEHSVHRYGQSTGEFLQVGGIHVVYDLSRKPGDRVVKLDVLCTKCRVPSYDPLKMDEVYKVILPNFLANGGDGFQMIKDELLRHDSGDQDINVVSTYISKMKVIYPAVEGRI
Description: (§1) The oligomeric state of CD73/antibody complexes were examined by size-exclusion chromatography coupled to an in-line multi-angle light scattering detector (SEC-MALS). Isocratic separations were performed on a Shodex PROTEIN KW-803 column connected to an Prominence Shimadzu UFLC in buffer containing 200 mM K₂HPO₄, 150 mM NaCl, pH 6.8, containing 0.02% Na azide (0.1 μm filtered) running at 0.5 mL/min. Samples were injected onto the column using a SIL-20AC Prominence Shimadzu autosampler, and data were obtained from three online detectors connected in series: a Prominence SPD-20AD diode array UV/vis spectrophotometer followed by a Wyatt miniDAWN™ TREOS Multi-Angle Light Scattering Detector then a Wyatt Optilab T-rEX Refractive Index Detector. Data were collected and analyzed using Astra (Wyatt) and Labsolutions (Shimadzu) software.
(§2) CD73.4 antibodies having the heavy chain constant regions set forth in Table 14 were also tested for formation of high molecular weight complexes by SEC-MALS and DLS experiments, as described in Example 3.

[2] = biological target: T2, human CD73 on Calu6 cells (human, UniProt P21589 27-549); experiment: cell-based or functional assay
T2 sequence (looked up): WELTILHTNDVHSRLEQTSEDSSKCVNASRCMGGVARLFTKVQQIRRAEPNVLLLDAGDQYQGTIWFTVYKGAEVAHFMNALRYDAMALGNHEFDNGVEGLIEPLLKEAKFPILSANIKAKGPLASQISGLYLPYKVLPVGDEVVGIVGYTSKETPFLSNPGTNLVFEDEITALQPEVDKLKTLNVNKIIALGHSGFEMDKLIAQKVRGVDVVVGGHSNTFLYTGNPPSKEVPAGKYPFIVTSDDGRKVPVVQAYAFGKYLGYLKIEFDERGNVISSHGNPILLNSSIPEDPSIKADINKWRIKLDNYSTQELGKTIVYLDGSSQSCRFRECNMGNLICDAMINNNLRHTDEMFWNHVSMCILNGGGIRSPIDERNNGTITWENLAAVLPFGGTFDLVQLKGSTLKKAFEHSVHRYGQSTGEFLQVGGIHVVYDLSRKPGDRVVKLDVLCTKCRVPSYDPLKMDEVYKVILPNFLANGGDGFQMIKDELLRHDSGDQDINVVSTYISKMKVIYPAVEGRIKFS

[3] = biological target: T1, hCD73-his (full length extracellular …); experiment: SEC, 5.5 uM each; peak 4: free mAb
Description: as §1, with “Isocratic” for “The oligomeric state of CD73/antibody complexes were examined by size-exclusion chromatography coupled to an in-line multi-angle light scattering detector (SEC-MALS). Isocratic”
as §2

[4] = biological target: T1, hCD73-his (full length extracellular …); experiment: SEC, 5.5 uM each; peak 2: about 2:2 complexes
Description: as §1, §2

[5] = biological target: T2, human CD73 on Calu6 cells; experiment: cell-based or functional assay; remark: listed apart in the source
[6] = biological target: T1, hCD73-his (full length extracellular …); experiment: SEC, 5.5 uM each; peak 3: about 1:1 complexes
Description: as §1, §2

[7] = biological target: T2, human CD73 on Calu6 cells; experiment: cell-based or functional assay; remark: listed apart in the source

Binder	UV % Peak1 (<12.9 min) [1] [%]	T1/2 (hr) of CD73 internalization, Calu6 cells [2]	T1/2 (hr) of CD73 internalization, NCI-H292 cells [2]	Ymax (%) of CD73 internalization, Calu6 cells [2] [%]	Ymax (%) of CD73 internalization, NCI-H292 cells [2] [%]	UV % Peak4 (16.7-19.3 min) [3] [%]	UV % Peak2 (12.9-15.1 min) [4] [%]	T1/2 (hr) of CD73 internalization, Calu6 cells [5] [h]	T1/2 (hr) of CD73 internalization, NCI-H292 cells [5] [h]	Ymax (%) of CD73 internalization, Calu6 cells [5] [%]	Ymax (%) of CD73 internalization, NCI-H292 cells [5] [%]	UV % Peak3 (15.1-16.7 min) [6] [%]	% internalization, Calu6 cells [7] [%]	% internalization, H228 cells [7] [%]	% internalization, H2030 cells [7] [%]	% internalization, HCC15 cells [7] [%]	T1/2 min of internalization, Calu6 cells [7] [min]	T1/2 min of internalization, H228 cells [7] [min]	T1/2 min of internalization, H2030 cells [7] [min]	T1/2 min of internalization, HCC15 cells [7] [min]
B1	30.6	0.355 h	0.293 h	81.2	91.4	33.7														
B2	30	0.336 h	0.271 h	81.7	91.6	34.9	23.9													
B3	37	0.372 h and 0.364 h	0.287 h and 0.284 h			28.6		0.6	0.277	75.6	78.4	7.7	88	94	89	94	6.5	13.8	3.7	3.1
B4	34.9	0.396 h	0.28 h	81.6	91.6		23.4													
